This is an account of results in article doi:10.1101/2022.02.08.479534, “FoxP3 can fold into two distinct dimerization states with divergent functional implications for T cell homeostasis”.

Where a chain is given by its changes, count along the chain named.

Data set [1] has as its target T1, NusA-FoxP3RBR-forkhead A372S (Mus musculus, UniProt Q99JB6 284-423, A372S).
T1 sequence: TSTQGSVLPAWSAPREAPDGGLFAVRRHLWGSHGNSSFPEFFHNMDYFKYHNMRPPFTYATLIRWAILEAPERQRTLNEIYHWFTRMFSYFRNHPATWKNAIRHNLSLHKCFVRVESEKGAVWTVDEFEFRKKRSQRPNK
The experiment in a line: EMSA; EMSA: 0.2 uM DNA, 20 mM Tris pH 7.5, 150 mM NaCl, 1.5 mM MgCl2, 2 mM DTT, 30 min at 4 C; anti-HA bead DNA pull-down: 20 min at room temperature; the EMSA IR-FKHM4g length is taken as 31 bp. The conditions noted are these: protein: recombinant; tags: His6-NusA; blunt.

Data set [2] addresses T2, FoxP3ΔN'' (Mus musculus, UniProt Q99JB6 204-417, C217S;C231S;del277-314).
T2 sequence: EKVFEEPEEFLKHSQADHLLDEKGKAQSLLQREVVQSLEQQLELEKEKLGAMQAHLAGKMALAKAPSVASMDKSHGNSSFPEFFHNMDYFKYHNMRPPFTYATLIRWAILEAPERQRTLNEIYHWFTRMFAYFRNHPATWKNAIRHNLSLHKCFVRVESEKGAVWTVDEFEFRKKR
The description is as above. To be noted: protein: recombinant; tags: His6-NusA cleaved; chain copies: 2; blunt.

For data set [3], the target named is T3, NusA-FoxP3RBR-forkhead A372G (Mus musculus, UniProt Q99JB6 284-423, A372G).
T3 sequence: T1 sequence with S89G
Described as above. The conditions noted are these: protein: recombinant; tags: His6-NusA; blunt.

Data set [4] concerns the target T4, FoxP3RBR-forkhead (Mus musculus, UniProt Q99JB6 284-423).
T4 sequence: T1 sequence with S89A
The description is as above. The conditions noted are these: protein: recombinant; tags: His6-NusA cleaved (HRV3C); blunt.

Data set [5] has as its target T5, FoxP3ZF-CC (Mus musculus, UniProt Q99JB6 188-284).
T5 sequence: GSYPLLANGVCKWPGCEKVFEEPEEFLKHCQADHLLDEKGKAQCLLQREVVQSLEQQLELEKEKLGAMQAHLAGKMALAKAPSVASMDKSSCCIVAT
The data set is described as follows: EMSA; up to 4 uM; barely detectable; EMSA: 0.2 uM DNA, 20 mM Tris pH 7.5, 150 mM NaCl, 1.5 mM MgCl2, 2 mM DTT, 30 min at 4 C; anti-HA bead DNA pull-down: 20 min at room temperature; the EMSA IR-FKHM4g length is taken as 31 bp. The conditions noted are these: protein: recombinant; blunt. For orientation: Mobility shift assays separate free from complexed probe on a gel.

Data set [6] deals with T6, NusA-FoxP2RBR-forkhead (Mus musculus, UniProt P58463 447-588).
T6 sequence: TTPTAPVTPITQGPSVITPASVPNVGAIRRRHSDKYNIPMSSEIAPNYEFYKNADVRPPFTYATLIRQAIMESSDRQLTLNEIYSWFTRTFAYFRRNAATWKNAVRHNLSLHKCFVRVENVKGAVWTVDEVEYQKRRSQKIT
The experiment in a line: EMSA; equal to sFKHM; EMSA: 0.2 uM DNA, 20 mM Tris pH 7.5, 150 mM NaCl, 1.5 mM MgCl2, 2 mM DTT, 30 min at 4 C; anti-HA bead DNA pull-down: 20 min at room temperature; the EMSA IR-FKHM4g length is taken as 31 bp. The conditions noted are these: protein: recombinant; tags: His6-NusA; blunt.

In data set [7] the target is T7, NusA-FoxP1RBR-forkhead (Mus musculus, UniProt P58462 433-579).
T7 sequence: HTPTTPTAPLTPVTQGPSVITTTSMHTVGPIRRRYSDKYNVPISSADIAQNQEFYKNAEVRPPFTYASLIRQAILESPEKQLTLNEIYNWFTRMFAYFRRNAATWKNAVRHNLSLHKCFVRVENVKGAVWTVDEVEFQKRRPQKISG
Described as above. The conditions noted are these: protein: recombinant; tags: His6-NusA; blunt.

The target of data set [8] is T8, NusA-FoxP4RBR-forkhead (Mus musculus, UniProt Q9DBY0 418-577).
T8 sequence: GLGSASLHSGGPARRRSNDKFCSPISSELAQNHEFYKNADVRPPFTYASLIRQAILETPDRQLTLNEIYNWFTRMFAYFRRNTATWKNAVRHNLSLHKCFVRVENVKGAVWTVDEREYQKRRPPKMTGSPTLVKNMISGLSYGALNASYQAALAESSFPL
The description is as above. To be noted: protein: recombinant; tags: His6-NusA; blunt.

B1: IR-FKHM4g (31bp) (dsDNA)
DNA 1: TTAGGAAAATTTGTTTACTCGAGTAAACAAA
DNA 2: TTTGTTTACTCGAGTAAACAAATTTTCCTAA
Take B1: the binding result in data set [1] is on record as “binds”; in data set [2], “binds”; in data set [3] it was “binds”; in data set [4], “binds”; in data set [5] it was “no binding”; in data set [6], “binds”. For the same molecule, the binding result in data set [7] and in data set [8] was “binds” throughout.
